# B1: Sperm-egg fusion protein Juno (Homo sapiens), A6ND01-1 (parent)
# chain: MACWWPLLLELWTVMPTWAGDELLNICMNAKHHKRVPSPEDKLYEECIPWKDNACCTLTTSWEAHLDVSPLYNFSLFHCGLLMPGCRKHFIQAICFYECSPNLGPWIQPVGSLGWEVAPSGQGERVVNVPLCQEDCEEWWEDCRMSYTCKSNWRGGWDWSQGKNRCPKGAQCLPFSHYFPTPADLCEKTWSNSFKASPERRNSGRCLQKWFEPAQGNPNVAVARLFASSAPSWELSYTIMVCSLFLPFLS
# B2: Izumo sperm-egg fusion protein 1 (Homo sapiens), Q8IYV9-1 (parent)
# chain: MGPHFTLLCAALAGCLLPAEGCVICDPSVVLALKSLEKDYLPGHLDAKHHKAMMERVENAVKDFQELSLNEDAYMGVVDEATLQKGSWSLLKDLKRITDSDVKGDLFVKELFWMLHLQKETFATYVARFQKEAYCPNKCGVMLQTLIWCKNCKKEVHACRKSYDCGERNVEVPQMEDMILDCELNWHQASEGLTDYSFYRVWGNNTETLVSKGKEATLTKPMVGPEDAGSYRCELGSVNSSPATIINFHVTVLPKMIKEEKPSPNIVTPGEATTESSISLQPLQPEKMLASRLLGLLICGSLALITGLTFAIFRRRKVIDFIKSSLFGLGSGAAEQTQVPKEKATDSRQQ
# Variants of: B1
# Conditions: with IZUMO1, Q8IYV9-1
row,Variant,effect of a mutation on the interaction
1,M83A,decreasing interaction strength
2,W62A,decreasing interaction strength
3,L81A,decreasing interaction strength

# Variants of: B2
# Conditions: with IZUMO1R
row,Variant,effect of a mutation on the interaction
1,W148A,decreasing interaction strength
